Earlier results on one substance are cited in article PMC5150220.

This data set deals with sigma32 peptide 132-144 (Escherichia coli) (UniProt P0AGB3).

DnaK, sequence (P0A6Y8 2-638): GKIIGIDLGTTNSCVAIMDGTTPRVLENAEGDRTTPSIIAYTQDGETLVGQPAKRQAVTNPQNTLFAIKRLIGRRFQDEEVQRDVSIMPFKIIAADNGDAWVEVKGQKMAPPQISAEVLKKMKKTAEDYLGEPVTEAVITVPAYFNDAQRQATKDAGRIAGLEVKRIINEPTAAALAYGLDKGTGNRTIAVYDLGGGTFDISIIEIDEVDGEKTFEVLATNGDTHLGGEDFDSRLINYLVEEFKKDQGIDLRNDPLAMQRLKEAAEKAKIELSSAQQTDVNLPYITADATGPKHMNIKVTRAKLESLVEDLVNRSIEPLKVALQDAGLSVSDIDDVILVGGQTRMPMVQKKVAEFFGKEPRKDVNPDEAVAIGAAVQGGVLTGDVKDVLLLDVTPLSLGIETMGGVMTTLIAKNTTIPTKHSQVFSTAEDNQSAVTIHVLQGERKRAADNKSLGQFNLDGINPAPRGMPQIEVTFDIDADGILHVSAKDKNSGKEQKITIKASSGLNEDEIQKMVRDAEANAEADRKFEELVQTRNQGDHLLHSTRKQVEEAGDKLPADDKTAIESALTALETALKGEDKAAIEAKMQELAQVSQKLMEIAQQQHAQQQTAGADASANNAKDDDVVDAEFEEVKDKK

For DnaK (from UniProt P0A6Y8), the Kd (commonly a measure of binding affinity in units of concentration) is 78 nM.
